Data from the RNAGym collection of RNA variant scans (doi:10.1073/pnas.2313332121).
This sample holds only a part of the variants without activity.

B1: TPR 5TU (parent)
chain: GGAUCUUCUCGAUCUAACAAAAAAGACAAAUCUGCCACAAAGCUUGAGAGCAUCUUCGGAUGCAGAGGCGGCAGCCUUCGGUGGCGCGAUAGCGCCAACGUUCUCAACUAUGACACGCAAAACGCGUGCUCCGUUGAAUGGAGUUUAUCAUG

Variants of: B1
Assay: polymerase ribozyme fitness, log enrichment relative to wild type (log ratio); higher = more active; in vitro selection for triplet polymerase activity
Outline: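 PCR was used to build mutant libraries for each subunit of a heterodimeric triplet polymerase ribozyme, which were then transcribed. A single in vitro selection round, in triplicate, used a frozen incubation at −7 °C and recovered extended constructs by gel excision, streptavidin beads and RT-PCR. Fitness is the logarithm of genotype enrichment relative to wild-type enrichment, averaged over replicates with inverse-variance weights. The logarithm is base 2, and after Illumina sequencing only genotypes with ≥10 input reads and ≥1 read per output were kept.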

Variant | polymerase ribozyme fitness (log ratio)
G59C G88C A106U C108U | ≤ -4.2
G59A G67A G86C C96G G140U U144C A147U | ≤ -4.2
G59C G67A C85A G112U | ≤ -4.2
A60G A91C C95U A110U C114U C118G A150U | ≤ -4.2
G59A C85G G126U | -2.21
G59C C63U C87U A107U | -3.81
G59U C99U C132U | -1.59
G59U U78G C79A C87U U109G A110U | -3.99
G58U U78G C79U G80A C85U C96U A106G A147C | ≤ -4.2
G59C G94A U101G A113C | ≤ -4.2
G58C G83C G117C C131U | -0.976
G58U C75A U90A | ≤ -4.2
G59A G136C | -2.89
G58U C72U C87U C99G G141C | ≤ -4.2
G58C G83U | -2.88
G58U A91G | -2.46
G58C C85U | -1.17
G58C C87U A115G C116G A121U G136U | -4.12
G59C C93U U102A A137G | -3.95
A60C C63U U77C G128U A150G G152A | ≤ -4.2
G59A C123A | -0.0504

Variant | polymerase ribozyme fitness (log ratio)
G59A G92U C114A A119U | -3.59
A60C C93U C123A | -1.12
G58C U111G C116A A137C | ≤ -4.2
G59C C93A C95A | -4.05
G58U C69G C87G | ≤ -4.2
G59A A147U | 1.25
G59C G81C G84C | ≤ -4.2
A60G A107U | -3.1
G58C C87A U109C U130G | ≤ -4.2
G59C U61G G84A C95G A120C G143U | -4.18
G58C G83C G117C | -0.409
A60C C79U U102A C103A A142G | ≤ -4.2
G58C G83U C85G | -3.33
G58C G140A | -3.51
G59U G86A C118G | -2.48
A60C A73G C96U U101G | -3.45
A60C G81C C87A | ≤ -4.2
G59C C95U | 0.0454
G59C C95A | -0.188
G59U G67C G136A | ≤ -4.2
G59U U139C | -3.8

Variant | polymerase ribozyme fitness (log ratio)
G58C A115U U127C U144G | 0.143
G59C C85U | -0.507
A60C G88C | ≤ -4.2
G59C G68C G70U G140U | ≤ -4.2
G59C G83U | 0.0759
G59C G83A | -0.754
G58C U144C | 0.128
G59C G83A C87A A137U G140U | ≤ -4.2
A60G C75G G81C G94U C103A A107U U111G | ≤ -4.2
G59A G74A | -3.23
G59C G86C C96U A121U | -3.29
G59A G92U U104C A121C | -2.09
A60G A107U C131G | ≤ -4.2
G58U A137C | -3.03
G59U G152C | -2.8
G59A G94C | -0.903
G58C G152A | -2.01
G59A C69A G86U A89C C95G | ≤ -4.2
G58U C63G A142C | -1.41
G58C C103A U145G | -1.84
G59A U90G C95G | ≤ -4.2

Variant | polymerase ribozyme fitness (log ratio)
G59U C99U U104G G128U U134A G136U A138G | ≤ -4.2
G58U G59A | 0.429
G59C G86U C95U | -2.13
G58C C63U A120C | -0.534
G59C G94C A119C U146G | -1.61
A60G C85G G94A | -0.0985
G59U U148G | -3.83
G59U U148C | -1.18
G59C A147C | -0.516
G58C C118A | -0.0404
G58C A91C C125G | ≤ -4.2
G58U U82A G84U U146G | -2.04
G59A C93A U135C U146A | -3.8
G59U C96U A142G | -1.66
G58U C132G | -2.82
G58C C85A A110C U111G | ≤ -4.2
G59A C125A | 0.12
G59C C96U U146A | 0.268
G59A C132G U139C | -2.96
G59U G86A A147U | -0.0426
